Measured values from the DeepSol protein solubility set.

Assay: soluble on expression in E. coli; label from the status in PepcDB or PDB records

Sequence | soluble on expression in E. coli
AHHHHHHGSKRRAVVLFSGGLDSTACLYWAKKQYDEVIMLTVNYGSNEERVTNKVAEYFSKELDVRLKIVKLDFLKEFSEIRGSSLVGGEVPRVTAEELEDIEKASETARSVWIPARNLVLISVAASLLDALGGGDIIVGFNAEEATTFPDNSREFVEKLNEALRFATLNPVKVVAPLIDLDKRGIAKLLKELNAKYEYSNSCYNPKGFTEDGRPIHCGECESCVRRHKGLIEGIGEDKTVYAITPRI | not soluble
AHHHHHHGSKVIASAPAKVILFGEHSVVYGKPAIAAAIDLRTFVEAELIREKKIRIEAHDIKVPGLTVSFSENEIYFETDYGKAAEVLSYVREAINLVLEEADKKNVGIKVSITSQIPVGAGLGSSAAVAVATIGAVSKLLGLELSKEEIAKMGHKTELLVQGASSGIDPTVSAIGGFIFYEKGKFEHLPFMELPIVVGYTGSSGPTKELVAMVRKRYEEMPELIVPILEAMGKVVEKAKDVILSNVDKEEKFERLGVLMNINHGLLDALGVSTKKLSELVYAARVAGALGAKITGAGGGGCMYALAPNKQREVATAIRIAGGTPMITEISREGLKIEEVIK | not soluble
AHHHHHHGSPKKERKVEGEEVIRVPLPEGNQLFGVVEQALGAGWMDVRCEDGKVRRCRIPGRLRRRVWIKVGDLVIVEPWPVQSDKRGDIVYRYTQTQVEWLLRKGKISQEFLTGGSLLLE | not soluble
AHHHHHHGSVLKCVVCGREYPEDEVRYRCECGGLLEVVIDLDKVDTSIFNGKEIKLWKYESWLPVKKRVSLEEGGTPLYRLLNLESDLGVKELYAKNEGANPTGSFKDRGMTVGVSKALELGMDKVICASTGNTSASLAAYAAKAGIKAYVLIPSGKIALGKLAQAIIYGARVVPIKGNFDDALRVVVETSKELGIYMLNSINPFRLEGQKTIAYEIYDQLGKVPDNVILPVGNAGNISAIWKGFKEMYEAGVIDELPRMIGIQAEGASPLAKAWKEKRKFQPEESPETIASAIRIGNPANWIKAWRAVEESGGLFESVSDEEILRAQKLLASREGLFVEPASAASLAGLIKLLESGEISRNESYVLITTGHGLKDPNIVIKNFQVPEPIDPTLEAFKEVIE | soluble
AIAAMGRTTQFTLDEVAKHADKDSCWLVIDGKVYAVEKFLNEHPGGEDVLLETAGRDATREFEDVGHSKSAREQLKEFYIGDVREPTAEELAAKRAVQASAAAERRDGDGVRANGLGKERLFAGGAFGAEPLSGGSSTWTLLKRLFVPVCIAVLVYLVREYSKQVQTGG | soluble
AIADKKAMWDRFYTENGSKGQFKNFEWFFGFPSVKDLVLPALQAMSCSHSGPLHILDMGCGTSALGPCIYSTSPCAVRVTCADISPVAVKLMEEHTKSTSTQPCNPSSALVFLELDCTQMTGHFKSRSLDLILDKGTTDALVRSKEGQVKAGQILRQSLQVLRPSGSFLQFSDEDPDARLIWLEREVQGAEVTADVGVQEIGELRGVSYFCYQISPRSRPHS | soluble
AIAEGEYRLTRSYAVVDITAQVDDSAILEPFACVMARARIGPRTRVGAHSVVGVGVSVGADCCIYHHVTLLNCDIGDRCVIHSGVAIGQDGFGFEVDQQTGKVRKKPQELSVRIGNEVEIGANTCIDRGSWRDTLIEDAVKIDNLVQIGHNVQVGANTFICGQAGVAGSTKIGRYCRFGGRSGAVDHLEIGDHVDVAANSVLTRNAPGHAVYAGFPAMPMREWRHQQVTLRRLSRAGKRQVDVSADDPEFPK | soluble
AIANNSHTGFVGEMFGSSDILRSVSIPSEADKPMIVELAVAAMEELVRMAQTGDPLWVSSDNSVEILNEEEYFRTFPRGIGPKPIGLRSEASRESTVVIMNHINLIEILMDVNQWSSVFCGIVSRALTLEVLSTGVAGNYNGALQVMTAEFQVPSPLVPTRENYFVRYCKQHSDGIWAVVDVSLDSLRPSPITRSRRRPSGCLIQELQNGYSKVTWVEHIEVDDRSVHNMYKPLVNTGLAFGAKRWVATLDRQCERLASSMASNIPACDLSVITSPEGRKSMLKLAERMVMSFCTGVGASTAHAWTTLSTTGSDDVRVMTRKSV | soluble
AIANSRAADQLELDGLPGTPPDFYRERQRSRVERYQSPAGAPLQCSVQVQTTQEHPLWTSHVWSGARALADTLCWQPELIAGKTVCELGAGAGLVSIVAFLAGADQVVATDYPDPEILNSLESNIREHTANSCSSETVKRASPKVVPYRWGDSPDSLQRCTGLQRFQVVLLADLLSFHQAHDALLRSVKMLLALPANDPTAVALVTFTHHRPHLAERDLAFFRLVNADGALIAEPWLSPLQMDPMFPDDPGDVCIRGQVHRWRLRWRSAASASANIPAHARNE | soluble
AIARENEAVKPTIQAVYLAAGLSSRFGGRIKCLQEVGRHGETLLELSVRQLCEAYPAISSLVFVVSEATHLPIHALIGEQFYGLPVYFCVQRVPAWRKRPLGTVDALLAAREHIHGPFIVLNGDSLYGVAALSLVCNHITAAKTACMPGYKLREVLPKEGRVNRAIVQTDERHRVLEIVEQYNIGFEDIEEGRYTGDELTSMNVFGFHDTSIFARADERFRRFLSELEALRDDHHLQQQQQSVKRCSTDENDVYAHKEYILSTMLNELLHDAQIELMVLSCNSIRTPLELTNPGDFAFVKNHLDLVGL | soluble
AIASSAIERKSLDPSEEPVDEVLQIPPSLLTCGGCQQNIGDRYFLKAIDQYWHEDCLSCDLCGCRLGEVGRRLYYKLGRKLCRRDYLRLFGQDGLCASCDKRIRAYEMTMRVKDKVYHLECFKCAACQKHFCVGDRYLLINSDIVCEQDIYEWTKINGMI | soluble
AIATYPTNLEIIGGQGGSSFSFTGENNGASLEKIWVWVGGWQIKAVRAWLSDGRDETFGVPSGSHQEYVFTPGECFTSLSLWGNGAGTRLGAIKFKTNKGGEFFAHMTSWGLKTEYPMDVGSGYCLGIVGRGGSDIDCMGFMFLNAVQSTVLTNVNYPTINQLIPKVATEEIKSVSFENKTSVKQEQKVETSKKVIKTSSWSMTKSFSSTFSVEVSAGIPEIAEVSTGFSISFGVESTHSLEQTDEKNETLTTTVEVPPKKKVDVHITIGRASFDLPYTGTVKITCKNGSVLQYETKGQYKGVAYTDIKVNTVEKDL | soluble
AKDWKWNLNWNGALNKNKVVSLPDNGLERNRQSAYQVYTGNGDEKKWVGGYQEGQRPGDLYMFVAEGLYKSQDEIPANLIDLTTGNNGSSGRPLYGGAEGYNKLTDSQKSNALPIQPGDVKWKDVNNDGVIDNYDMVKVGNTVPKWTGGINTTVSWKDLTLSARFDYALGFTAVDWKTMWIMSCAQGTYNTIEETKNTWTPENPNAKYPTYVWADQLGKRNYCRSSSMFAYNGNYIALRELSLSYKLPSILVQKAKLSNVELSITGQNLGYLTEAKHLFSPEKADNNGGYPLPRTVIFGINVSF | not soluble
AKEKDTIRTEGVVTEALPNATFRVKLDSGPEILAYISGKMRMHYIRILPGDRVVVEITPYDPTRGRIVYRK | soluble
AKKAMEQILIPVANPETIENLVNLALVIKDAKQKNGMIALNVINDNNSSENKELQGKRNLEKAAMIAAAADVPVTMVSRYDLNIASGIIHTIKEYEATDVVIGLHRKANIVDSFFGNLAESLLKGTHREVMIAKFLM | not soluble
AKNECHPERTDGCQHFCLPGQESYTCSCAQGYRLGEDHKQCVPHDQCACGVLTSEKRAPDLQDLPWQVKLTNSEGKDFCGGVIIRENFVLTTAKCSLLHRNITVKTYFNRTSQDPLMIKITHVHVHMRYDADAGENDLSLLELEWPIQCPGAGLPVCTPEKDFAEHLLIPRTRGLLSGWARNGTDLGNSLTTRPVTLVEGEECGQVLNVTVTTRTYCERSSVAAMHWMDGSVVTREHRGSWFLTGVLGSQPVGGQAHMVLVTKVSRYSLWFKQIMNAHHHHHH | soluble
AKTAAALHILVKEEKLALDLLEQIKNGADFGKLAKKHSICPSGKRGGDLGEFRQGQMVPAFDKVVFSCPVLEPTGPLHTQFGYHIIKVLYRN | soluble
AKTTIIAGSAEAPQGSDIQVPVKIENADKVGSINLILSYPNVLEVEDVLQGSLTQNSLFDYQVEGNQIKVGIADSNGISGDGSLFYVKFRVTGNEKAEQAENVKGKLRGLGQQLSEITLRNSHALTLQGIEIYDIDGNSVKVATINGTFRIVSQEEAHHHHHH | soluble
ALNPNEHQLIKNVFGFIDVTVRQVMTPRTSINAIDIDLPLEYVLNKIVNEGYSRLPVYKDNIDNIIGILYTKDLLKMMNKGEQIKLQSAMRQPYFVPETKKINELLKNLQAKHLHMAIIIDEFGGVSGITTIEDIIEELVGEIQDEHDDEAPVVEQVSA | not soluble
ALVGDNLEQIDARLVNSLPLFKDQEGRDVNVRVGRYGPYLERQVGVSEDGEPEYQRANLSDSTTPDELTLELAEKLFATPQSGRELGRNPKNNRMIVAKEGRFGPYVTELVNDDERTEVEAKAEEIVAAEREAEDLQRAAEGKRAKNWGTKTAAAQKEKRIAQIIEETLKPSTASLFKTMEPSSVTLDEALQLLALPREVGVDPSDNEVITAQNGRYGPYLKKGSDSRTLASEDQIFSITLDEARRIYAEPKRRGRGATSQSVIKQLGDNDVSGKPMSVRDGRFGPYVTDGTTNASLRRGDDPTQLTEARANELLSERRAKEAADGGSSKKATKKASKKTTKRVAKAGARKKK | not soluble
ALYGNSSGGVINVTSQTGAQPPTVEASSYYGSFGTWHYGMKATGAVGDGSHAGDVDYTVSTNRFTTHGYRDHSGARKNLANARLGVRINDVSKLTLLLNSVDIKANDAGGLTADEWRDNPRQSPRGDQYNTRKNTRQTQAGLRYERQLSAQDDLSVMMYAGERETTQFQSIPRAPQLKPSHAGGVIDLTRHYQGIDTRLTHRGELLVPVTLTAGLDYENMSERRKGYENFVMVNGAPQYGEQGALRRNERNLMWNVDPYLQTQWQLTDKLSLDAGVRYSSVWFDSNDYYITPGNGDDSGDASYHKWLPAGSLKYALTDAWNVYLSAGRGFETPTINELSYRSDNQSGLNFGLKPSTNDTVEIGSKTRIGNGLFTAALFQTNTDNEIVVDSSSGGRTSYKNAGKTRRQGMELGLDQQFGESWRLKAAWTWLDATYRTNVCDDASCNGNRIPGIARNMGYASFGYQPEQGWYAGSDIRYMSDIMANDENTAKAPSWTVVGLTTGYKWSYGRMDMDLFGRIDNLFDREYVGSVIVNESNGRYYEPAPGRNYGIGLNLAWRFE | not soluble
AMAISDPQSSTRNELETGSSSACPKVIYIFARASTEPGNMGISAGPIVADALERIYGANDVWVQGVGGPYLADLASNFLPDGTSSAAINEARRLFTLANTKCPNAAIVSGGYSQGTAVMAGSISGLSTTIKNQIKGVVLFGYTKNLQNLGRIPNFETSKTEVYCDIADAVCYGTLFILPAHFLYQTDAAVAAPRFLQARIG | soluble
AMEVHPISEFASPFEVFKCIERDFKVAGLLESIGGPQYKARYSVIAWSTNGYLKIHDDPVNILNGYLKDLKLADIPGLFKGGMIGYISYDAVRFWEKIRDLKPAAEDWPYAEFFTPDNIIIYDHNEGKVYVNADLSSVGGCGDIGEFKVSFYDESLNKNSYERIVSESLEYIRSGYIFQVVLSRFYRYIFSGDPLRIYYNLRRINPSPYMFYLKFDEKYLIGSSPELLFRVQDNIVETYPIAGTRPRGADQEEDLKLELELMNSEKDKAEHLMLVDLARNDLGKVCVPGTVKVPELMYVEKYSHVQHIVSKVIGTLKKKYNALNVLSATFPAGTVSGAPKPMAMNIIETLEEYKRGPYAGAVGFISADGNAEFAIAIRTAFLNKELLRIHAGAGIVYDSNPESEYFETEHKLKALKTAIGVR | soluble
